Assay: soluble on expression in E. coli; label from the status in PepcDB or PDB records

Row | Sequence | soluble on expression in E. coli
1 | AAKEEADSRISPGNIFEEKAKFLVMMESSIYAAKRGDALIAQILILAGRLSKNEAPKEALLFMEKTITGEIDLSVAKNLLIAYMRIRREEKQRDLNSVKNDDAIPSDINIDDLTNT | not soluble
2 | AAVLTQDKNTPTYGPANGKVTVIEFFDYQCVYCSRLAPVMEQVIKAHPQTRFAFKEWPIFGGRWESSLEAAKTGLQIYQQKGADAYLAYHNGIYATGHNEGKLTTADIQQQAKKAGFDAKKAADVEPVLQSINDLAQEIGLSGTPGVIVMPTTGATEASITVFPGLADKASLEAAIKKAGG | not soluble
3 | ADDILNVHRRNAKDPFAVGAVDAPLVITEFSDFECPFCARWSNQTEPTLMEEYVSKGLVRIEWNDLPVNGEHALAAAKAGRAAAAQGKFDEFRKALFEASRNVSGHPNNTLKDFERFARNAGVKDMERFSREAQDSTYDEVLTKAADYAHGLGVSGTPAFVVGTQYISGAQPTEEFIKVIESELKKSPTFSTPSSHQN | not soluble
4 | ADDPIRMYFEPGHYTVMENCGEFEVRVVRRGDISTYASVEYETQDGTASAGTDFVGRKGLLSFPPGVDEQRFRIEVIDDDVFEEDECFYIRLFNPSEGVKLAVPMIATVMILDDDHAGIFAFTDSVFEITESVGRFE | soluble
5 | ADEFGNGDALDLPVGKDAVNSLIRENSHIFSDTQCKVCSAVLISESQKLAHYQSRKHANKVRRYMAINQGEDSVPAKKFKAAPAEISDGEDRSKCCPVCNMTFSSPVVAESHYIGKTHIKNLRLREQ | soluble
6 | ADLGTENLYFQSMKPSPEEAQLWSEAFDELLASKYGLAAFRAFLKSEFCEENIEFWLACEDFKKTKSPQKLSSKARKIYTDFIEKEAPKEINIDFQTKTLIAQNIQEATSGCFTTAQKRVYSLMENNSYPRFLESEFYQDLCKKPQ | soluble
7 | ADQPSPTWGIDRIDQRNLPLDNNYHTDYDGSGVTAFVIDTGVLNTHNEFGGRASSGYDFIDNDYDATDCNGHGTHVAGTIGGSTYGVAKNVNVVGVRVLNCSGSGSNSGVIAGINWVKNNASGPAVANMSLGGGASQATDDAVNAAVAAGITFVVAAGNDNSNACNYSPARAADAITVGSTTSNDSRSSFSNYGTCLDIYAPGSSITSSWYTSNSATNTISGTSMASPHVAGVAALYLDENPNLSPAQVTNLLKTRATADKVTDAKTGSPNKLLFSLA | soluble
8 | ADRHYSPIDRFLLQADSALRTLLPFSGQPARPSPAIVEPDGELSEEDTRHIAGLMRINHTGEVCAQALYQGQSLTAKLPEVREAMEEAAEEEIDHLAWCEQRIRQLGSRPSVLNPIFYGLSFGVGAAAGLVSDRVSLGFVAATEDQVCKHLDEHLAQIPQEDRKSRAILEQMRIDEEQHSSNALAAGGLRFPAPVKLGMSLLAKV | not soluble
9 | ADVSAAVGATGQSGMTYRLGLSWDWDKSWWQTSTGRLTGYWDAGYTYWEGGDEGAGKHSLSFAPVFVYEFAGDSIKPFIEAGIGVAAFSGTRVGDQNLGSSLNFEDRIGAGLKFANGQSVGVRAIHYSNAGLKQPNDGIESYSLFYKIPI | soluble
10 | AEVEHYEPLQVHVQLEKVYLDGDVSIEHKHEKVFSMDDFWAAYAGWTLVEQKKGYVLFRKQMDDISPLSKVNGYIGVSDNGVISTFHGRPEPASEPIQSFFQIDLERLESHMQKNLLKGIPFRTKAEFEDVIEHMKTYSG | soluble
11 | AEVTQLSNGIVVATEHNPSAHTASVGVVFGSGAANENPYNNGVSNLWKNIFLSKENSAVAAKEGLALSSNISRDFQSYIVSSLPGSTDKSLDFLNQSFIQQKANLLSSSNFEATKKSVLKQVQDFEDNDHPNRVLEHLHSTAFQNTPLSLPTRGTLESLENLVVADLESFANNHFLNSNAVVVGTGNIKHEDLVNSIESKNLSLQTGTKPVLKKKAAFLGSEVRLRDDTLPKAWISLAVEGEPVNSPNYFVAKLAAQIFGSYNAFEPASRLQGIKLLDNIQEYQLCDNFNHFSLSYKDSGLWGFSTATRNVTMIDDLIHFTLKQWNRLTISVTDTEVERAKSLLKLQLGQLYESGNPVNDANLLGAEVLIKGSKLSLGEAFKKIDAITVKDVKAWAGKRLWDQDIAIAGTGQIEGLLDYMRIRSDMSMMRW | soluble
12 | AEWSGEYISPYAEHGKKSEQVKKITVSIPLKVLKILTDERTRRKVNNLRHATNSELLCEAFLHAFTGQPLPDDADLRKERSDEIPEAAKEIMREMGINPETWEY | soluble
13 | AFRGLRKGQFFDENALMLIATIAAFFVGAYEESVSIMVFYSAGEFLQKLAVSRSKKSLKALVDVAPNLAYLKKGDELVSVAPEDLRVNDIVVVKVGEKVPVDGVVVKGESLLDERALSGESMPVNVSENSKVLGGSLNLKAVLEIQVEKMYKDSSIAKVVDLVQ | not soluble
14 | AFYINVVPDMVGGRLSSHDRDVLGLARQLAGAEGAVLAVVFGEHKETAFDSAGVDRLLLLDGNESDGYSPEQRVQGLRAVDNQFGPQRWVFPDSRTGGGELGRRFAASLGERPATRVWQVKGEHCTSRAGA | not soluble
15 | AGHILLLEEEDEAATVVCEMLTAAGFKVIWLVDGSTALDQLDLLQPIVILMAWPPPDQSCLLLLQHLREHQADPHPPLVLFLGEPPVDPLLTAQASAILSKPLDPQLLLTTLQGLCPPN | soluble
16 | AGHMQQEAVAPEDSAVVKLATDSFNEYIQSHDLVLAEFFAPWCGHCKNMAPEYVKAAETLVEKNITLAQIDCTENQDLCMEHNIPGFPSLKIFKNSDVNNSIDYEGPRTAEAIVQFMIKQSQPAVAVVADLPAYLANETFVTPVIVQSGKIDADFNATFYSMANKHFNDYDFVSAENADDDFKLSIYLPSAMDEPVVYNGKKADIADADVFEKWLQVEALPYFGEIDGSVFAQYVESGLPLGYLFYNDEEELEEYKPLFTELAKKNRGLMNFVSIDARKFGRHAGNLNMKEQFPLFAIHDMTEDLKYGLPQLSEEAFDELSDKIVLESKAIESLVKDFLKGDASPIVKSQEIFENQDSSVFQLVGKNHDEIVNDPKKDVLVLYYAPWCGHCKRLAPTYQELADTYANATSDVLIAKLDHTENDVRGVVIEGYPTIVLYPGGKKSESVVYQGSRSLDSLFDFIKENGHFDVDGKALYEEAQEKAAEEADADAELADEEDAIHDEL | soluble
17 | AGSDEVNRNECKTVVPLHTWVLISNFKLSYNILRRADGTFERDLGEYLDRRVPANARPLEGVSSFDHIIDQSVGLEVRIYRAAAEGDAEEGAAAVTRPILEFLTDAPAAEPFPVIIFFHGGSFVHSSASSTIYDSLCRRFVKLSKGVVVSVNYRRAPEHRYPCAYDDGWTALKWVMSQPFMRSGGDAQARVFLSGDSSGGNIAHHVAVRAADEGVKVCGNILLNAMFGGTERTESERRLDGKYFVTLQDRDWYWKAYLPEDADRDHPACNPFGPNGRRLGGLPFAKSLIIVSGLDLTCDRQLAYADALREDGHHVKVVQCENATVGFYLLPNTVHYHEVMEEISDFLNANLYYGSHHHHHHHHHH | soluble
18 | AHHHHHHGSAKRVHLFDWHKEHAKKIEEFAGWEMPIWYSSIKEEHLAVRNAVGVFDVSHMGEILFKGKDALKFLQYTTTNDISKPPAISGTYTLVLNERGAIKDETLVFNMGNNEYLMICDADAFEKLYAWFTYLKKTIEQFTKLDLEIELKTYDIAMFAVQGPKARDLAMDLFGIDINEMWWFQGRWVELDGIKMLLSRSGYTGENGFEVYIEDLNPYHPDEEKRGKPEKALHVWERILEEGQKYGIKPAGLGARDTLRLEAGYTLYGNDTKELQLLSTDIDEVTPLQANLEFAIYWDKDFIGKDALLKQKEKGLGRKLVHFKMLEKSVPREGYKVYANGELIGEVTSGTLSPLLNIGIGIAFVKEEYAKPGVEIEIDIRGTRKKAITVTPPFYDPKKYGLFREE | soluble
19 | AHHHHHHGSDGLTAQEFLTLVKLERGMYLSKEEKDDVERIKEKNKRVLELIKDHHKDFDVYLTGHIDFDNLLTMYEIYKELKKRGVNVYYPGLFWANWREKGEIEYKIKNNAKILLVITQTISFGTSVDVGFFIHRKINEEEAKIVFCYTGPSYEFESLKTHPASIYIDYFTRDIEDAIEKTLEFLSL | soluble
20 | AHHHHHHGSDSIIVYVSIHHKNTEKVAKVIAEVLNARLVKPWEIKPEELLKYDLIGFGSGIYYWKHHRALFELINKLPKVEGKKAFIFSTAGLNIPFINHRKLRKVLREKGFEIVGEFSCRGWDTNGWLAEIGGLNKGHPNEKDLENARKFAENLKASI | soluble
21 | AHHHHHHGSEFFEVLKKRRSIRRFQDKPVPRELIEKLLEAAFLSPSSYNKRPCHFIVVDDREKLEALSKSKLGASGLKTAPVAIVVTADESKSDVWIEDASIAAEHIHLASYALGLASFWVQIRNRMHNETKTAEEYVRELLNIPENYRVLCIIGVGYPAEDKPPHGNEVFEWEKVSYNEFGKRFK | soluble
22 | AHHHHHHGSGMKYLIKLKYIKPAQLAVNREQKLAEFYPIFEDGTLGRVEAKARVFLPEYSDFAKGLGFEVKKRRMITEDDYAYLRAMVYGVVMGVLRNPGDWRRLEERVLEMEPIELRYWASKFRNAYWKYKNMRKLMFLARRFMEVEMI | not soluble
23 | AHHHHHHGSGSSRTFRTSWADLGNLAKSIPPHHHLNPFEGKWNKKLSKKAIIMWQINVNDNRKFLSDC | not soluble
24 | AHHHHHHGSHKLKVSVSFSYGKKEIVKNVEFEGKVGEIIAIIGPNGAGKSTLLKCIAGILKPRGIIEYNGIDLTKLKPKERAKIVGYVPQSSYPEFAFTVEEFVELGTYAGKGDVDEAIRRVGLWEKRKEFITNLSGGEYQLTLIARALAQGGDIMLLDEPTSHLDINHTREIMEILQELKKEKLIIAVFHDLNLAINYADEIIVLKNGETAWKGKSKEISEEVIEATYGIKPRIVREDGIVAVLP | soluble
25 | AHHHHHHGSILDVRGLKPPQPTLMILENLGKLKIGETLEVLGDKPFVDIIPKLEEAGYQVELNKVGEFFVLKVTKTEGSKELKMEVEECDEELKEITEDTNVAKLLKAYPESLDILVKYGFSPLQNPVLRKTLARTVTLKQAKKLIGMSDERFEEMMKELKKLEKR | soluble
26 | AHHHHHHGSKILYPTDFSEVSQKALTECVPSIILGIGEGSELILLHVVDITASEIGALELAEVDKEELNNLASQLREKGIKVKPIVRIGIPSLEISEVAKEENVDLIIIPSKGENILRQMLLGSTASNLARITHKPVLLLRYEVENGEIKSLQDCSRIFEKPLVALDLSKCSEKIIETIKDLPGVREAVLFHVVDYGKVEELENNIKNAKEKLSKYGKLLPWKTKIEVQAGIASKGIIGAAIDNNVTLVVIGKKGRSVLKDLLLGSTAERVIRDCKLPTLLIPCE | not soluble
27 | AHHHHHHGSKIPDDVRKDIPLTQEVIYFDNTATSLTPKPVIEAMDEYYLKYRANVHRGVHRLSQMATQKYEESRKVVADFINAKFEEIVFTKNTSESLNLVALGLEHTFKKGDKIVTTPYEHHSNLLPWQRLAKKLGLKLEFIEGDDEGNLDLSDAEKKIKGAKLVAVQHVSNALGVIHEVEELGRMAKEEGAIFVVDAAQSVGHMEVDVKKLNADFLAFSGHKGPMGPTGIGVLFISEEYFDVFDPPLIGGGTIEDVDLCCYKLTEPPERFEAGTPNIGGAIGLAAGIKYIEKIGIEKIEKQERKLVKRTTEGLDELEIPWYGPRNLDKHAGVVSFNVPPLHPHDVAAVLDEHKIMVRSGHHCALPVMKKLGINGTVRASFHVYNSVEEVEIFLGVLEDLVRKIRGAL | soluble

From the DeepSol protein solubility set
